Laboratory results taken from IntAct's records for PubMed 21525957.

B1: Protein phosphatase Slingshot homolog 1 (Homo sapiens), Q8WYL5 (parent)
chain: MALVTLQRSPTPSAASSSASNSELEAGSEEDRKLNLSLSESFFMVKGAALFLQQGSSPQGQRSLQHPHKHAGDLPQHLQVMINLLRCEDRIKLAVRLESAWADRVRYMVVVYSSGRQDTEENILLGVDFSSKESKSCTIGMVLRLWSDTKIHLDGDGGFSVSTAGRMHIFKPVSVQAMWSALQVLHKACEVARRHNYFPGGVALIWATYYESCISSEQSCINEWNAMQDLESTRPDSPALFVDKPTEGERTERLIKAKLRSIMMSQDLENVTSKEIRNELEKQMNCNLKELKEFIDNEMLLILGQMDKPSLIFDHLYLGSEWNASNLEELQGSGVDYILNVTREIDNFFPGLFAYHNIRVYDEETTDLLAHWNEAYHFINKAKRNHSKCLVHCKMGVSRSASTVIAYAMKEFGWPLEKAYNYVKQKRSITRPNAGFMRQLSEYEGILDASKQRHNKLWRQQTDSSLQQPVDDPAGPGDFLPETPDGTPESQLPFLDDAAQPGLGPPLPCCFRRLSDPLLPSPEDETGSLVHLEDPEREALLEEAAPPAEVHRPARQPQQGSGLCEKDVKKKLEFGSPKGRSGSLLQVEETEREEGLGAGRWGQLPTQLDQNLLNSENLNNNSKRSCPNGMEDDAIFGILNKVKPSYKSCADCMYPTASGAPEASRERCEDPNAPAICTQPAFLPHITSSPVAHLASRSRVPEKPASGPTEPPPFLPPAGSRRADTSGPGAGAALEPPASLLEPSRETPKVLPKSLLLKNSHCDKNPPSTEVVIKEESSPKKDMKPAKDLRLLFSNESEKPTTNSYLMQHQESIIQLQKAGLVRKHTKELERLKSVPADPAPPSRDGPASRLEASIPEESQDPAALHELGPLVMPSQAGSDEKSEAAPASLEGGSLKSPPPFFYRLDHTSSFSKDFLKTICYTPTSSSMSSNLTRSSSSDSIHSVRGKPGLVKQRTQEIETRLRLAGLTVSSPLKRSHSLAKLGSLTFSTEDLSSEADPSTVADSQDTTLSESSFLHEPQGTPRDPAATSKPSGKPAPENLKSPSWMSKS

Variants of: B1
Conditions: with cof1_human CFL1, P23528
Chain of cof1_human CFL1, P23528 (P23528 whole entry): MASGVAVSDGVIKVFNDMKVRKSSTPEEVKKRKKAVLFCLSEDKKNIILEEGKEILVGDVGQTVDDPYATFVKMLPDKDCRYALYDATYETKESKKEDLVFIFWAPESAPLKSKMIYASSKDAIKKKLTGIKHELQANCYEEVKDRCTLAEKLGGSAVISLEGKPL

effect of a mutation on the interaction | Variant
disrupting interaction | S402E

Variants of: B1
Conditions: with cof1_human CFL1, P23528
Remark: another data set of the same source

effect of a mutation on the interaction | Variant
disrupting interaction | S402D
